Results reported in article doi:10.1101/2025.07.23.666473.

Molecular target: NaV1.5 (mouse (endogenous in heart)) (UniProt Q9JJV9)
Assay: co-IP

Chain of UniProt Q9JJV9 (Q9JJV9 whole entry): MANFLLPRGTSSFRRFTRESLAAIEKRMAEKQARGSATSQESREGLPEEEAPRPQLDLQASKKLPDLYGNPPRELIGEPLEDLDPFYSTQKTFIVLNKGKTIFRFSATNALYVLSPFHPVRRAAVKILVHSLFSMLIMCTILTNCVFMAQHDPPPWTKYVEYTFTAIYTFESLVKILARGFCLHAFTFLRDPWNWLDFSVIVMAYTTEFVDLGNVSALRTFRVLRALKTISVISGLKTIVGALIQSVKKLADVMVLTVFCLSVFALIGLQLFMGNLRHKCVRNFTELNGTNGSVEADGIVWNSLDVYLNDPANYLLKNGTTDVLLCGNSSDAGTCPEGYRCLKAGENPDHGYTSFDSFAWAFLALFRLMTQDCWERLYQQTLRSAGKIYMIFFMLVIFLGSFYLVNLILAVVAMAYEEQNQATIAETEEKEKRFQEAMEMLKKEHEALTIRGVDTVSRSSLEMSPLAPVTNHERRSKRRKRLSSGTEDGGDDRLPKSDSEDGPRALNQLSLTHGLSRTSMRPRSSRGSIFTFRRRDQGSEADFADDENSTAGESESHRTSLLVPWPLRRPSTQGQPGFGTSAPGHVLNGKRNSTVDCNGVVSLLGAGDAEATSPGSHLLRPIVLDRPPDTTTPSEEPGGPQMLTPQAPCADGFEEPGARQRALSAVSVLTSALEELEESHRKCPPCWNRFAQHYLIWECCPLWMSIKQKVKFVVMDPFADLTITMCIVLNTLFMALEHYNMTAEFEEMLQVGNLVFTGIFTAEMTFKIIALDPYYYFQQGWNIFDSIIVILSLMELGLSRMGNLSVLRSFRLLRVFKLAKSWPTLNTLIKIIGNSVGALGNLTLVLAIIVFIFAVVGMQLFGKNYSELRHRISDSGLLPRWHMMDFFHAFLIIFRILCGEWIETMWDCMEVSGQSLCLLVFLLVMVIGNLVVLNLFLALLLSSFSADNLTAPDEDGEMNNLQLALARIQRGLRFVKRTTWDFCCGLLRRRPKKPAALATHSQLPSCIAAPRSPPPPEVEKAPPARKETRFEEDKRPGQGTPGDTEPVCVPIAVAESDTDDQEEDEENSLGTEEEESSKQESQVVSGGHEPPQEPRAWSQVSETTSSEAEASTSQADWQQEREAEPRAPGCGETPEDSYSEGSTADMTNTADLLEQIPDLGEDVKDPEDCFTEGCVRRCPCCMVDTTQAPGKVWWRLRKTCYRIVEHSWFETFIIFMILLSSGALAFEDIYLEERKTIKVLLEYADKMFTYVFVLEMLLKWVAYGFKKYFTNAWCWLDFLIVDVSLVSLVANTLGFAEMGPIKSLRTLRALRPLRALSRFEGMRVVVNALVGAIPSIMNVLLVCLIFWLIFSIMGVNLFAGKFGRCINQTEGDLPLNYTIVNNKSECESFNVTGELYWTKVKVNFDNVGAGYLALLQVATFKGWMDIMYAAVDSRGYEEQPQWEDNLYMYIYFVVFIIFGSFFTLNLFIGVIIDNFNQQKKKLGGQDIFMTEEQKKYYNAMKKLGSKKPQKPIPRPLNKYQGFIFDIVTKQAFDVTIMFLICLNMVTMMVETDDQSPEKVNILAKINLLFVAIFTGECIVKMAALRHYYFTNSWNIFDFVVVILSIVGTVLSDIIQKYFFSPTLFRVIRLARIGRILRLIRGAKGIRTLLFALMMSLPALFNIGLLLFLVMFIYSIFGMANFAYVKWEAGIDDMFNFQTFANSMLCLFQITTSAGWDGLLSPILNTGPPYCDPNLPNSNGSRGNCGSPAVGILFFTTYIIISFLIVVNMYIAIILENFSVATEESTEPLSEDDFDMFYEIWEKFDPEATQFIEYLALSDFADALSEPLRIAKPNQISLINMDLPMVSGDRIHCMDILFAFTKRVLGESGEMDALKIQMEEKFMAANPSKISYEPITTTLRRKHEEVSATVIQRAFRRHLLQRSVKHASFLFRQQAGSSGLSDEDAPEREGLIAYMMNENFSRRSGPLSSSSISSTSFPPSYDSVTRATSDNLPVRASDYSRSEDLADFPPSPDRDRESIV

## FGF13 (from UniProt P70377 1-245) (natural protein)
  percent of total FGF13 depleted with NaV1.5 (in complex): 35%
